How the values were obtained:
[1] = target: Hfq-65 (Escherichia coli, UniProt P0A6X3 1-65, del66-102); experiment: EMSA
[2] = target: Hfq-75 (Escherichia coli, UniProt P0A6X3 1-75, del76-102); experiment: EMSA

AAAAAAAAAAAAAAAAAA (ssRNA) [rA18]
binding result [1]: binds
binding result [2]: binds

Reference: article PMC3072145
